Legend:
[1] = test system: cultured monkey corneal endothelial cell; test: Cell density measurement (Konan KSS-400EB) after R-spondin 1 addition; assay type: cell-based, cynomolgus monkey; conditions: 10 ng/ml or 50 ng/ml R-spondin 1; 48 hours after addition
Method: A cultured monkey corneal endothelial cell (Lot. 20111222-4 P2) was treated with 0.05% trypsin at 37° C. for 10 minutes, peeled from a T-25 flask, and suspended in a culture medium (10% FBS+bFGF/DMEM). The number of cells was counted, and the suspension was adjusted with a culture medium to 3×10^4 cells/300 μl. Cells were seeded on a Lab-TekII chamber Slide (8 well) coated with FNS, in 300 μl/well.
At 7 days after cell seeding, a medium was exchanged with a medium containing R-spondin 1 (0, 10, 50 ng/ml) in the state where cells were almost confluent, and at 24 hours after addition of R-spondin 1, Click-iT EdU was added so that the final concentration was 10 μM. (Although a manual of Kit recommended that a half of a medium was exchanged, a medium was not exchanged) After additional 24 hours (48 hours after addition of R-spondin 1), cells were fixed with 4% PFA/PBS, EdU was detected according to a manual of Kit, and the EdU-positive cell rate was counted (FIGS. 8 and 9).
A chamber slide after staining was photographed with a phase contrast microscope, and the cell density was measured using the corneal endothelial cell density calculating software, Konan Storage System KSS-400EB (FIG. 10).

[2] = test system: corneal endothelial cell of rabbit sclerocorneal section; test: Organ culture of rabbit sclerocorneal section with R-spondin 1: corneal endothelial cell density (ZO-1); assay type: cell-based, white rabbit; conditions: control 3674
Method: Eyeballs of white rabbit (Nacalai) euthanized for another object were purchased, and a sclerocorneal section was prepared. The sclerocorneal section was cultured in an incubator at 37° C. for 1 week in DMEM (INVITROGEN, catalog No.: 12320) and 10% fetal bovine serum (FBS) (BIOWEST, catalog No.: 51820-500). […] A corneal endothelial cell was subjected to nuclear staining with DAPI, and the Ki67-positive cell rate was calculated. In addition, a corneal endothelial cell was immunostained with ZO-1, and the cell density was calculated.

[3] = test system: cytosol β-catenin and p-LRP6; test: Western blotting of Wnt/β-catenin-associated molecules in human CEC with or without RSPO1; assay type: cell-based
Source text: For Western blotting, the following rabbit polyclonal antibodies: anti-LRP6, p-LRP6 (Cell Signaling Technology, Inc., Beverly, Mass.), as well as the following mouse monoclonal antibodies: β-catenin (BD Biosciences) and β-actin (Sigma-Aldrich, St. Louis, Mo.); were used. As a secondary antibody, HRP-labeled anti-rabbit or mouse IgG (GE Healthcare, Piscataway, N.J.) was used. Recombinant human SHH, purmorphamine, cyclopamine and RSpos were purchased from R&D Systems Inc. (Minneapolis, Minn.).
Cultured human CEC was washed with PBS, and then, rinsed with a lysis buffer containing PBS, 1% TRITON™ X-100, 0.5 M EDTA, phosphatase inhibitor cocktail 2 (Sigma-Aldrich) and […] (Roche). Detection of activated β-catenin (non-membrane-bound type) was implemented according to the protocol previously reported [Aghib D F et al., Exp Cell Res., 1995; 218: 359-369]. In brief, a cell lysate treated with Con A Sepharose™ 4B (GE Healthcare) was incubated at 4° C. for 1 hour. After centrifugation at 4° C. for 10 minutes, the supernatant was transferred into a new tube, Con A Sepharose™ was added to each tube, and the resultant was incubated at 4° C. for 1 hour. Finally, after simple centrifugation, the supernatant was transferred into a new tube, and the protein concentration was determined.
Then, the protein was separated by SDS-PAGE, and transferred to a PVDF membrane. […]

[4] = test system: human corneal endothelial cell in the confluent state; test: Cell density of confluent human corneal endothelial cells cultured with R-spondin 1; assay type: cell-based; conditions: R-spondin 1 10 ng/ml, 566.8 at addition
Source text: • (Source and culture method): As a human corneal endothelial cell, a corneal endothelial cell was mechanically peeled together with a basal membrane from a cornea for research, purchased from Seattle Eye Bank, and the corneal endothelial cell was peeled and recovered from the basal membrane using collagenase (ROCHE catalog No.: 10 103 586 001), and was subjected to primary culturing. As a medium, for human, Opti-MEM I Reduced-Serum Medium, Liquid (INVITROGEN catalog No.: 31985-070), 8% fetal bovine serum (FES) (BIOWEST, catalog No.: S1820-500), […] CaCl2.2H2O (SIGMA catalog No.: C7902-500G), 0.08% chondroitin sulfate (SIGMA catalog No.: C9819-5G), 20 μg/ml ascorbic acid (SIGMA catalog No.: A4544-25G), 50 μg/ml gentamicin (INVITROGEN catalog No.: 15710-064) and 5 ng/ml EGF (INVITROGEN catalog No.: PHG0311), acclimated for a 3T3 feeder cell, were used.
After subculturing, at the time point where cells reached confluent and were cultured for 2 weeks or longer, and no clear change in the corneal endothelium density was recognized, R-spondin 1 was added into a medium in a concentration of 10 ng/ml, and culture was continued. Observation of cell morphology was performed with a phase contrast microscope, and the cell density was calculated.

B1: R-spondin 1: Recombinant Human R-spondin 1 (R&D Cat. 4645-RS); ligand of GPR49/LGR5 (protein, listed as Homo sapiens)
chain: MRLGLCVVALVLSWTHLTISSRGIKGKRQRRISAEGSQACAKGCELCSEVNGCLKCSPKLFILLERNDIRQVGVCLPSCPPGYFDARNPDMNKCIKCKIEHCEACFSHNFCTKCKEGLYLHKGRCYPACPEGSSAANGTMECSSPAQCEMSEWSPWGPCSKKQQLCGFRRGSEERTRRVLHAPVGDHAACSDTKETRRCTVRRVPCPEGQKRRKGGQGRRENANRNLARKESKEAGAGSRRRKGQQQQQQQGTVGPLTSAGPA
[1]
  cell density as compared with a control: 1.3 times
[2]; 1 ng/ml R-spondin 1, 1 week
  corneal endothelial cell density: 4314 cells/mm^2
[2]; 10 ng/ml R-spondin 1, 1 week
  corneal endothelial cell density: 4626 cells/mm^2
[2]; 100 ng/ml R-spondin 1, 1 week
  corneal endothelial cell density: 5037 cells/mm^2
[3]; cell transfected with GPR49/LGR5 and treated with RSPO1 (50 ng/ml), as compared with NT cell
  protein level of cytosol β-catenin and p-LRP6: clearly decreased
[3]; cells transfected with NT and GPR49/LGR5, treated with RSPO1 (50 ng/ml), as compared with cell group not treated with RSPO1
  protein level of cytosol β-catenin and p-LRP6: decreased
[4]; 7th day
  corneal endothelial cell density: about 695 cells/mm^2
[4]; after 14 days
  corneal endothelial cell density: about 875 cells/mm^2
[4]; after 21 days, control without R-spondin 1 535.4
  corneal endothelial cell density: 995.8 cells/mm^2

Source: patent publication US9616101B2, “Differentiation marker and differentiation control of eye cell” (Kyoto Prefectural Public University Corporation, priority 2012, dated 2017)
